Test [1] deals with T1, human interleukin 1 receptor accessory protein, membrane-bound form on cells (human, UniProt Q9NPH3 21-570).
T1 construct: On IL1-RAP-transfected 293 cells, AML cell lines (EOL-1, HNT-34, OCI-AML2, OCI-AML3), primary AML cells and HEK-Blue IL-1β cells; also called IL1-RAP; receptor IL1-RAP
T1 sequence: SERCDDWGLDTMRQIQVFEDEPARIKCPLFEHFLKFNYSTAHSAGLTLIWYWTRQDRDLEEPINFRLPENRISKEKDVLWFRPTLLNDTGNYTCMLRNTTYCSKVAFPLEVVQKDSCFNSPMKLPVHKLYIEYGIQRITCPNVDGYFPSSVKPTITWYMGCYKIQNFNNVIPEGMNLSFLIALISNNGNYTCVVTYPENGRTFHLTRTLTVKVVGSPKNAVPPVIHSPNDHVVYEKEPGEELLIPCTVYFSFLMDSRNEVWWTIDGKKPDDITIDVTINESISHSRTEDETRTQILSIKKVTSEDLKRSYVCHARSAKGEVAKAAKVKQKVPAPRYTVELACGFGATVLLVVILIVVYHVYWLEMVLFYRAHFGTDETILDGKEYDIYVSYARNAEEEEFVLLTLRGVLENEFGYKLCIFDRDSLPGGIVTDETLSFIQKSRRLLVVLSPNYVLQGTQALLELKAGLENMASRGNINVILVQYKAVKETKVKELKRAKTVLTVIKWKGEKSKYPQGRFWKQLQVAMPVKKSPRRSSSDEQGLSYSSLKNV
The experiment in a line: FACS titration on IL1-RAP transfected 293 cells.

Test [2] concerns the target T1, human interleukin 1 receptor accessory …. Description: FACS titration on HNT-34 cells.
The target of test [3] is T2, soluble IL1-RAP form (isoform 2) (human, UniProt Q9NPH3 21-350).
T2 construct: Expressed in and purified from 293 cells; also called Q9NPH3-2; soluble form IL1RAP
T2 sequence: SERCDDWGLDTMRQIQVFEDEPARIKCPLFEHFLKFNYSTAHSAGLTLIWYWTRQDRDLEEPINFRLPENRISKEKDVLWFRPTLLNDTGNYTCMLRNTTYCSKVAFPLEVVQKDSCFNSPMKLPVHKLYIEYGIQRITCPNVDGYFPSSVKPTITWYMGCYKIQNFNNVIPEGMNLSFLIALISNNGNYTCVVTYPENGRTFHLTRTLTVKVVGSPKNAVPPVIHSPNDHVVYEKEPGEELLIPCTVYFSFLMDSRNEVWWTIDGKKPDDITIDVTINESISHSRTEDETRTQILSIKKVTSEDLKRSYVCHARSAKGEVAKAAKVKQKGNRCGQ
Description: sandwich ELISA: plate coated with goat anti-IL1RAP antibody, then soluble IL1-RAP, then 2H8. As for the experimental part:
(§1) The extracellular domain of IL1-RAP (Q9NPH3-4) and soluble IL1-RAP form (Q9NPH3-2) were expressed and purified from 293 cells. Sandwich ELISA was performed. The binding data shown in FIGS. 3A and 3B supports the conclusion that clone 2H8 binds to membrane-bound IL1-RAP better compared to soluble IL1-RAP form.

Test [4] deals with T3, his-tagged extracellular domain (ECD) of IL1-RAP (human, UniProt Q9NPH3 21-367).
T3 construct: also called ECD IL1-RAP; IL1-RAP-His fusion protein
T3 sequence: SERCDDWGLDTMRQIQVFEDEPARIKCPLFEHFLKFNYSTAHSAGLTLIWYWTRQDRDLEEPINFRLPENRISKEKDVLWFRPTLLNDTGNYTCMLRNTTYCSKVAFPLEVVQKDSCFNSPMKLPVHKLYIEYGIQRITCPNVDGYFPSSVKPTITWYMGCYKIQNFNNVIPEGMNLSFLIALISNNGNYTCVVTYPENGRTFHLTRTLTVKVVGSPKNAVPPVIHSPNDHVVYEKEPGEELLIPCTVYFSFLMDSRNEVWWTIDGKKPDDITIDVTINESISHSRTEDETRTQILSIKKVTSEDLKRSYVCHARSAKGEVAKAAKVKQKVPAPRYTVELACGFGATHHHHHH
The experiment in a line: sandwich ELISA: plate coated with goat anti-IL1RAP antibody, then extracellular domain of IL1-RAP, then 2H8. As for the experimental part: as §1
Background: In an ELISA, binding on a coated surface is turned into a signal by an enzyme label.

In test [5] the target is T1, human interleukin 1 receptor accessory …. Description: FACS titration on EOL-1 cells.
The target in test [6] is T4, IL1-RAP (antigen of the kinetic measurements of Tables 5A and 5B) (human, UniProt Q9NPH3 21-359, limits assumed).
T4 sequence: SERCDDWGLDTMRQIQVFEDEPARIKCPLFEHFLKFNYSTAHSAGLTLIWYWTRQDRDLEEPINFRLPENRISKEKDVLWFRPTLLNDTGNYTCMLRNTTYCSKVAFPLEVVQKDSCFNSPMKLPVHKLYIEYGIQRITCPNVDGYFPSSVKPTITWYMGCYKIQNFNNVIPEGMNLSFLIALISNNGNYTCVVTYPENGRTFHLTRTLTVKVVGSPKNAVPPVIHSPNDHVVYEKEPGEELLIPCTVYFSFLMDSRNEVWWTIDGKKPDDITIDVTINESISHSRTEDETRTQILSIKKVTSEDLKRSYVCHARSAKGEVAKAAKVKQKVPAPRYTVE
Description: kinetics, Table 5B; method and antigen form not stated; Table 5B.

The target of test [7] is T1, human interleukin 1 receptor accessory …. The experiment in a line: FACS on EOL-1 cells, FITC; antibody concentration not given.
The target of test [8] is T4, IL1-RAP (antigen of the kinetic …). Description: kinetics, Table 5A; method and antigen form not stated.
Test [9] has as its target T1, human interleukin 1 receptor accessory …. The experiment in a line: FACS titration on EOL-1 cells. The source holds these as a separate data set.
In test [10] the target is T4, IL1-RAP (antigen of the kinetic …). The experiment in a line: kinetics, Table 5A; method and antigen form not stated; Table 5A.
Test [11] has the same target. The experiment in a line: kinetics, Table 5B; method and antigen form not stated.

B1: anti-IL1-RAP antibody clone 2H8 (antibody, V domains shown)
VH: QIQLVQSGPELKKPGETVKISCKASGYTFTDYSMHWVKQAPGKGLKWMGWINTETGEPTYADDFKGRFAFSLETSASTAYLQINNLKNEDTATYFCARYYGYFDYWGQGTTLTVSS
VL: DIVLTQSPASLAVSLGQRATISCRASESVDSYGNSFMHWYQQKPGQPPKLLIYRASNLESGIPARFSGSGSRTDFTLTINPVEADDVATYYCQQSNEDPWTFGGGTKLEIK
notes: Mouse monoclonal antibody; also called 2H8.3
For orientation: EC50 (read off the curve) means the concentration giving half of the maximal effect. A higher EC50 (read off the curve) goes with lower potency in that assay. With B1, the “EC50 (read off the curve)” value in [1] is around 0.9 µg/mL; in test [2], around 0.5 µg/mL; in test [3], around 1 µg/mL; in test [4] it was around 0.6 µg/mL; in test [5] it was around 1 µg/mL.

B2: chimeric 54.9D7 (antibody, V domains shown)
VH: HVQLQQSGPELVRPGASVKLSCKASGYIFITYWMNWVKQRPGQGLEWVGQIFPASGTTYYNELFEGKATLTVDTSSNTAYMHLTSLTSEDSAVYYCARTDFYRYDGGYALDYWGQGTSLTVSS
VL: DIVLTQSPISLAVFLGQRATISCRASQSVSTSGYSSMHWYQQKAGQPPKLLIKYASDLESGVPVRFSGSGSGTDFILNIHPVEVEDIATYYCHHSWGIPMYTFGGGTKLEIKR
notes: Chimeric antibody; also called Chi54.9D7
The term Kd denotes the free concentration of one partner at which half of the binding sites on the other are occupied at equilibrium, for simple one-to-one binding. Low values mean a tighter complex, high ones a looser complex. For orientation: koff means the rate constant with which the complex falls apart. In general, kon refers to the second-order rate constant of association. B2: the dissociation constant (Kd) in test [6] and in [10] was below 0.001 nM each time. Further, the MFI in test [7] was 32.2. The koff in test [8] and in test [11] was below 1e-07 s⁻¹ throughout. Also, the values for the kon in test [8] and in [11] were 143000 M⁻¹ s⁻¹ and 158000 M⁻¹ s⁻¹, respectively. Besides, the “EC50 (read off the curve)” value in test [9] was around 200 nM.
